Reference: the supplement of paper PMC12764529
± gives the half width of the 95% confidence interval.

How the values were obtained:
[1] = folding stability dG unfold from trypsin proteolysis; higher = more stable
Procedure, shortened: (§1)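 Only designs with AlphaFold2 dimer inter-PAE above 15 were retained; each was a mini-protein under 80 residues with no cysteine, in a PA-tagged cDNA display construct. After digestion with trypsin and chymotrypsin and sequencing, K50 was inferred by Bayesian fitting of counts, and unfolding free energy was derived per protease or combined against a sequence-predicted unfolded-state K50 and a shared folded-state K50.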

[2] = folding stability dG unfold from chymotrypsin proteolysis; higher = more stable
Procedure, shortened: as §1

[3] = folding stability dG unfold (combined trypsin and chymotrypsin); higher = more stable
Procedure, shortened: as §1

Row | Sequence | folding stability dG unfold [1] | folding stability dG unfold [2] | folding stability dG unfold [3]
1 | SAGGGPFGIPFPFPIEDPDRLDLVEGLVAELEEFFRSLGAGPLTAERVGDTTYVVLVPFDGKPIVSGSAGGS [r16_703_TrMRF] | 1.51 ± 0.025 kcal/mol | 1.95 ± 0.066 kcal/mol | 1.8 ± 0.089 kcal/mol
2 | SAGGSAGGSEVKTITLTIKNKETNKEIKIEVQVFKNEDGELVFIAKAEITYNGKKYTFTVLLPSAGGSAGGS [r12_619_TrROS_Hall] | 3.82 ± 0.27 kcal/mol | 4.38 ± 0.16 kcal/mol | 4.43 ± 0.31 kcal/mol
3 | SAGGPISKKKIVTAPVSYDPATGKYTITLTYPDSTYTIPSDLSDLEEALKRAKEKLEKETGIPVETVLGSAG [r5_251_JUSTAS] | 0.576 ± 0.032 kcal/mol | 1 ± 0.11 kcal/mol | 0.918 ± 0.074 kcal/mol
4 | SAGGGEIKIEIYRHPDTIMIRVKWDNPQQLKEEIIELFREENGFKPKEVSVQYNPNGYLYIMFEFKPKSAGG [r13_158_TrROS] | 2.59 ± 0.12 kcal/mol | 4.12 ± 0.086 kcal/mol | 3.64 ± 0.21 kcal/mol
5 | SAGAMLTLELTVEADSPEEAIERAKEIAKELIKKEYPELSKNTKIEKITAEPTPGPEVKVTITIKIDPGSAG [r5_320_JUSTAS] | 4.42 ± 0.17 kcal/mol | 3.61 ± 0.18 kcal/mol | 4.32 ± 0.22 kcal/mol
6 | SAGGMTIEELLKKNPELKELVKKGYVIEITYPDGKKETIKISEEDLKKILDDIKKKTNKPVEIKILPSAGGS [r16_655_TrROS_Hall] | 1.05 ± 0.081 kcal/mol | 1.82 ± 0.17 kcal/mol | 1.54 ± 0.32 kcal/mol
7 | SMVVLPVRYPDLSPEEARAAVEALAAEIEAAVGAEVRVEVEVERAPDGTPVRVLVTATVVIRTAADALLLSA [r9_21_JUSTAS] | 0.946 ± 0.061 kcal/mol | 1.16 ± 0.068 kcal/mol | 1.09 ± 0.12 kcal/mol
8 | SAGGSAGGSAAPVPPDRTLTVYRDPNTDKYTIRTPDGSVTVSPITPEELRAAGAPVVYLGPESAGGSAGGSA [r18_125_JUSTAS] | -1 ± 0.25 kcal/mol | -0.0867 ± 0.12 kcal/mol | -0.297 ± 0.073 kcal/mol
9 | SAGKMVKITITGPADKIKELLKKLFPNAEVEVKKVNGKLVFYFKPGEEVIEIEITDKDGNKLTIKIEKVSAG [r5_123_TrROS_Hall] | 2.54 ± 0.066 kcal/mol | 3.74 ± 0.087 kcal/mol | 3.48 ± 0.17 kcal/mol
10 | SAGGSAGGSAGKKVLVLSEDEIAELLGLSKEEIENMSEEEKEKLALELAKKLGIDEVIITSAGGSAGGSAGG [r11_80_TrROS_Hall] | 3.76 ± 0.11 kcal/mol | 3.31 ± 0.094 kcal/mol | 3.54 ± 0.055 kcal/mol
11 | SAGGLKDILKELGFPIKSVTVQPMPMPNGMPMRTVSITFENPNGPKFEIEVMVMPNGEVMIDIEWVKPSAGG [r13_818_TrROS] | 2.23 ± 0.092 kcal/mol | 2.69 ± 0.11 kcal/mol | 2.48 ± 0.22 kcal/mol
12 | SAGGTAEEIVEALKEAGIPVLSIEPNSDGTYTITVGGPDGTPFTIEISSANPADLAALKEAIPEEVSSAGGS [r16_821_TrMRF] | 3.35 ± 0.22 kcal/mol | 4.01 ± 0.072 kcal/mol | 3.86 ± 0.12 kcal/mol
13 | SAGGLLVADEAGVPLSPVPPVPPIPVQVTFPDGTKVTIEYYPGLNEVKVEYEGDDPAKVAEIVKEILKSAGG [r13_701_JUSTAS] | 0.146 ± 0.15 kcal/mol | 0.444 ± 0.11 kcal/mol | 0.443 ± 0.13 kcal/mol
14 | SAGGPLTLEFTLPNGDEVGDVTVEPLPDDSYIVTVVAEDKDRPGVYYVSLVRIPPTDRTLEVVSGPVYSAGG [r13_370_TrMRF] | 1.12 ± 0.02 kcal/mol | 1.24 ± 0.12 kcal/mol | 1.2 ± 0.064 kcal/mol
15 | SHWVRKELQEKGYPVKDIEMNPPQGYFYITIQRKRPRKGKPKKKEITIPMDPNMTPDNMLWMARNALDAYSA [r9_184_TrROS] | 1.05 ± 0.14 kcal/mol | 0.594 ± 0.14 kcal/mol | 0.804 ± 0.1 kcal/mol
16 | SAGGSAGGSAGWRTHSHWVPPDNIPELAERIQDWGVKVEIERDPKDGWYRVTITIPDDFISAGGSAGGSAGG [r11_1043_TrROS] | 0.793 ± 0.058 kcal/mol | 1.38 ± 0.15 kcal/mol | 1.21 ± 0.14 kcal/mol
17 | SAGGSAGGSAGGLKPGQKVAVFVKVKVKLYRDPATNELTEEVEIEDVFVVDAETKELLLSAGGSAGGSAGGS [r10_248_TrROS_Hall] | 1.98 ± 0.13 kcal/mol | 2.64 ± 0.071 kcal/mol | 2.45 ± 0.12 kcal/mol
18 | SRRLITIEITVTLPGNPEVTLSKTLKLPTEDVEEAIEKAKKEFKEEFGIPEDVPVKIEVTVSTSDGDPSLQS [r1_149_JUSTAS] | 2.53 ± 0.18 kcal/mol | 1.56 ± 0.049 kcal/mol | 1.96 ± 0.068 kcal/mol
19 | SAGGSAGGSAGMVIEDPSGVTTVVTFDTSVPVVTTTTLTKDPNSNNYTTTTTTTPVTVPVSAGGSAGGSAGG [r17_491_JUSTAS] | 1.34 ± 0.099 kcal/mol | 0.725 ± 0.11 kcal/mol | 1.06 ± 0.073 kcal/mol
20 | SAANTEEITITVPLTDPETGEERTVTIPVKYVNTNKPYKTPNGSTKTIPVPKSTVIKEAEEEAKKIFESSSA [r9_698_JUSTAS] | -0.381 ± 0.95 kcal/mol | 0.213 ± 0.3 kcal/mol | -0.369 ± 0.56 kcal/mol
21 | SKTIYIPKNVPIDYILKVVKEAEKKGKPVKIVIETYNNPKVIEALKKAGYKVEIKEDKKKKITLIVVYPESA [r9_759_TrMRF] | 3.33 ± 0.2 kcal/mol | 4.35 ± 0.11 kcal/mol | 4.2 ± 0.39 kcal/mol
